Results: the DeepSol protein solubility set

Assay: soluble on expression in E. coli; label from the status in PepcDB or PDB records

Sequence | soluble on expression in E. coli
MNMNKTYIPKLDDLLGGGVKEGASIMFSASPGVDYEAFGYQMLNGRLDEGTRGFIFTNVEEPESIIYEFRSYGWDIESHIENGNLFFVDGSSPFLGMPSDQRYTVNDYSEIKDVVLNAINDIPGGVGIINNLSVIIDYLGNGDTLEIVEAWNRRASELDVNLVYLFTEWDYEPELIDKLRESMDCVVNLRTIEERVIIGQGFMVANSAWSEPPSTMVLFFVVQPGGVKVYVPKILVTGPYNSGKSSFVRAIATKSVSVDRKALSAFPTTIAMDIGHLEYKGFMADIFGTPGQERFDMILDVLSREAVGAFILLDSTAPETFARAKEMIRKTRAEAIPKVVVANKQDLPGALSPEEIREMMKLGADVPIVPASVTEGWGVRDALDTLLGLLYGGLEHHHHHH | not soluble
MNMSSEMLPASIESPNVEEKLGTSDGEEERQEPRVDAGAEPISKRQLKKLMKQKQWEEQREQRKEKRKEKRKRKKLERRQLESNSDGNDRKRVRRDVARSSLRLVIDCSFDDLMVLKDIKKLHKQIQRCYAENRRASHPVQFYLTSHGGQLKKNMDENDQGWVNWKDIHIKSEHYSELIKKEDLVYLTSDSPNVLKDLDESKAYVIGGLVDHSHHKGLTFKQATSYGIEHAQLPLADFVKMNSRKVLAVNHVFEIILEFLETRDWQEAFFTILPQRKGAVPAHKACESSPQDHQSLPEGWDSASEGESCRDNPDSPQKDEQGQQSSPVLQ | soluble
MNMVAQQMPSPEEIAAQLQMIRDQIAELQGVLAQLELRLRSVQAAKETVEKAAGQDGETLFPGDPELNTILKARLLEPGKAIVHLGLNVYAKLDTAKATEILAKKEDALKRSLETLKQELDKLSRTHDQYLQLLQALTAGQAAQQAGQQQKQGS | soluble
MNNEPLRPDPDRLLEQTAAPHRGKLKVFFGACAGVGKTWAMLAEAQRLRAQGLDIVVGVVETHGRKDTAAMLEGLAVLPLKRQAYRGRHISEFDLDAALARRPALILMDELAHSNAPGSRHPKRWQDIEELLEAGIDVFTTVNVQHLESLNDVVSGVTGIQVRETVPDPFFDAADDVVLVDLPPDDLRQRLKEGKVYIAGQAERAIEHFFRKGNLIALRELALRRTADRVDEQMRAWRGHPGEEKVWHTRDAILLCIGHNTGSEKLVRAAARLASRLGSVWHAVYVETPALHRLPEKKRRAILSALRLAQELGAETATLSDPAEEKAVVRYAREHNLGKIILGRPASRRWWRRETFADRLARIAPDLDQVLVALDEPPAR | soluble
MNNHFGKGLMAGLHAPYAYSAHHAVNFCSEYKRGFVLGFTHRMFEKTGDRQLSAWEAGILTRRYGLDKEMVMDFFKENHSGMAVRFFMAGYRLEG | not soluble
MNNKRTKGENVYQLVQKRLKFLFNEFDNIYVSFSGGKDSGVLLNLCIQYIREHNLDRKIGVYHMDYEAQYQMTTEYVEQTFRENQDILEIYHVCVPFKVVTCASMFQTYWRPWDESMHAHWVRPMPKNCYKKEDFPFYNEEMWDYTFQTSFASWYHKKHDAVRTCCLVGIRTQESLDRWRTIHGNNRLNSYHNLMWTRRLGYDLYNAYPIYDWTTEDIWTAYARFKWPFNQMYELYYK | not soluble
MNNPKPCEWKSNELSRGYIADYKAFNFVDGEGVRCSLYVSGCPFHCEGCYNKAAQSFKYGKPYTKELEDDILKDIGHESVQGLTLLGGEPFLNTATCLSIVKRIRATYGETKDIWSWTGYTWDEMMQETADKLELLSLIDVLVDGRFEQKLFDPNLAFRGSSNQRIIDVQKSLAAGEVVLYELLEHHHHHH | not soluble
MNNSGADEIGKLFVGGLDWSTTQETLRSYFSQYGEVVDCVIMKDKTTNQSRGFGFVKFKDPNCVGTVLASRPHTLDGRNIDPKPCTPRGMQPERTRPKEGWQKGPRSDNSKSNKIFVGGIPHNCGETELREYFKKFGVVTEVVMIYDAEKQRPRGFGFITFEDEQSVDQAVNMHFHDIMGKKVEVKRAEPRDSKSQAPGQPGASQWGSRVVPNAANGWAGQPPPTWQQGYGPQGMWVPAGQAIGGYGPPPAGRGAPPPPPPFTSYIVSTPPGGFPPPQGFPQGYGAPPQFSFGYGPPPPPPDQFAPPGVPPPPATPGAAPLAFPPPPSQAAPDMSKPPTAQPDFPYGQYAGYGQDLSGFGQGFSDPSQQPPSYGGPSVPGSGGPPAGGSGFGRGQNHNVQGFHPYRR | soluble
MNNTYNEKTHTLIKQLLKKFSPKVPGFAYMASFDSGVTYKGAVGLASIEENLPITTKSVFNIASVSKQFTAFSILLLEQEGRLSLDDSIVKFVPSIGTYAEPVTLRHLIHHTGGLVDYMELAHAENIEFTDILTVEQSLKHLNGHQIARFPVGTKFEYSNTGYFLLSLVVEKVSGKSLRQFAKERIFDSLNMKDTTIVDCYPTTISIARGYSKNEQGAYMVYESPWEHTGDGAVHATVEDLVKWGENLTTGTVGGKELVKRMSEIGPEISPTRETIIANEDYAFGLRLAEGFNCRYLEHSGSWAGYRSYFMRFPKEYLTVVVLSNYDGFDSKKYANEIAGIILEK | not soluble
MNPIVVLGSKVVDGQVTGLLASRLEKAIEVSSLTPEAPVVVSGFGEAAAMADYLRARGVTTIVEEPWATSTNENLENAHALFPDTLQWTVVTSGFHAWRTYLWAWHLGIPIKVVTARTPSAERLGMAMRECFALPHSTLRVLWRKIRTPKNLEHHHHHH | soluble
MNPKIVFFDIDDTLYRKYTDTLRPSVKTAVAALRGKGILTALATGRSLATIPEKVRDMMAEAGMDAVVTINGQFALLHGKTVREVPMDAGLMGRVCAHLDGLGMDYAFVGGEGIAVSALSECVCRALKHIASDFFADKDYFSSKPVYQMLVFAEENEMPL | not soluble
MNPPDISVLIVSFNTRDLLRRCLASLRDQAGGTGIETIVVDNASRDGSADMVEAEFPDVRLIRSPVNLGFGNANNLAFTQSRGRYLVLLNSDACLAPGLLDAASKRMDACPDVGMAGGRLVGPEGGWQPSARMFPSLLNEFLVLSGLAHRYPKSRLFGRFDRTWADPSEEAGVDWVPGAFAILRRDLIDRIGFFDPRFFLYYEEVDLCRRIRAAGCKIMYWPELVITHLGGESAKTLSDMEFSSHASQLTLWRMRSQALYYRKWHGLALAWSAKTLEQLWHWLRALRHRRSAPAKAHDSEALIRLWNRAWKETEGGRVSPPQPWLEHHHHHH | not soluble
MNPSVKIVVLSLPTATARRSQMSAMLGNTSLDWQYFDAHASLMCPNLHYDGAELRRHFGRNLSPPEIAVCSSHAAILQEFVDRNQADYILVLEDDVIFDTDFPLDQFCAFCASNGLEYVRLFGKHYAKAVHLGFFYDRSIVRFTTSPAGAQAYLMSRMAARRFLDSYQSIRATVDLAMDSFWITQLPIYSIFPYPIIERFSPTSIPMPPHTVEVRGLEHAIWQGARVVNKAKKILTNAKLRKSDESLRQRHWQFRQVGRVDVEQRRDPAAALEHHHHHH | soluble
MNPTTLADVDTVIINANILTLDRDCPHAQAIAFAAGRILALGTTQELSPLAGRAATVVDARGSTLLPGFIDSHSHLMFGGVVAQALDLTEAACLSDLLDMVRSRAQSTPEGEWIRGYGVAAGRLKEKRYPTRQELDQVSGGRPVWLAEDSFHASLVNSKAFRMLEIPLSTPGVELAADGSPTGAFLNDAANVPARQRVFGFISDDEARQMLQHVTQLGATRGVTTVHAFEGSRMSADRDIELLMRFRHELPIHVVPYYETFDVERAMQLGVSGVGGCGRNCLDGMPNIQTAAMVDPYCCSEERGSLFQESIKLHNFVIAAFERGMQVGMHAMGDAAIEQLLATYERAIEETGRTDLRPRIEHFHVPSRDHVRRAADLGVGLAVQPIFTHLWGGRDGIFFERLGERRYKRIDTYREILDSGAIASCGADLPVHPADPLRWIQLLVDNQIDRDQSVSMTEAIRMCTYNGAWLGFQESETGTLAVSKAADAVMLGRDPHQCMPHEIAAIPILKTLGGKLVFESSRPLEHHHHHH | not soluble
MNQQKSLTLIVALTTSYGIGRSNSLPWKLKKEISYFKRVTSFVPTFDSFESMNVVLMGRKTWESIPLQFRPLKGRINVVITRNESLDLGNGIHSAKSLDHALELLYRTYGSESSVQINRIFVIGGAQLYKAAMDHPKLDRIMATIIYKDIHCDVFFPLKFRDKEWSSVWKKEKHSDLESWVGTKVPHGKINEDGFDYEFEMWTRDL | soluble
MNQWMELADRVLAGAEVTDEEALSILHCPDEDILLLMHGAFHIRKHFYGKKVKLNMIMNAKSGLCPENCGYCSQSAISKAPIESYRMVNKETLLEGAKRAHDLNIGTYCIVASGRGPSNREVDQVVDAVQEIKETYGLKICACLGLLKPEQAKRLKDAGVDRYNHNLNTSQRNHSNITTSHTYDDRVNTVEIAKESGLSPCSGAIIGMKETKQDVIDIAKSLKALDADSIPVNFLHAIDGTPLEGVNELNPLYCLKVLALFRFINPSKEIRISGGREVNLRTLQPLGLYAANSIFVGDYLTTAGQEETEDHKMLSDLGFEVESVEEMKASLSAKSLEHHHHHH | not soluble
MNQYQKTTERKKQAIIQAALHLFKEKGFKGTSIKSIAKAAQVSPVSIYNYFESKESLVDLCVNKLFEEITQEAENILTSEIDFKMKLCQALALCQKKMSHQISVYFKEKTIKDPTFSKLLTKAIVAKKREIYRSYIKLGKDEGVIAKDLSTELILNVMDALNSIGNQLSESENLGEEIEQIHRLFLYGIFGKI | not soluble
MNRAEKREFVTWLNEAFRKSGSVIVAHYSGLTVSQMNDLRSKMSEAGGAIKVAKNRLAKIALQGTESESIVDLFSGQTLIAYSEDPITAPKVAVDFAKTNDKFVILGGSMGATSLSVDAVKSLASLPSLNELRAKLVGMISTPATRIAQVVNAPAGQVVRVIGAYAQEGKAA | not soluble
MNRPSGRAADQLRPIRITRHYTKHAEGSVLVEFGDTKVICTVSAESGVPRFLKGQGQGWLTAEYGMLPRSTGERNQREASRGKQGGRTLEIQRLIGRSLRAALDLSKLGENTLYIDCDVIQADGGTRTASITGATVALIDALAVLKKRGALKGNPLKQMVAAVSVGIYQGVPVLDLDYLEDSAAETDLNVVMTDAGGFIEVQGTAEGAPFRPAELNAMLELAQQGMQELFELQRAALAE | soluble
MNRSMKQYDPIDFVVDWVDSNDISWKKKKSLYEENVISSVDDSQARYRDWGIFKYWFRAVEKNAPWVHKIFIITDHQNPKFLNKHSSKIVFVNHEDFIPNEYLPTFNSDAIEIGIQNIPGLSEHFVFFNDDMFINKPVKPIDFFDGNIPKDSGVMGPQFPISNSITHITVNNMEIINKYFLKKKVLRKYFFKFFNWRYGKDNIRTATALPWQVFIGFYDMHIPISFLKSTFDNVWSEVGNLLSQNYQHRFRSQLDYSVWLMRYFQLASGNFFPRRTRFGKYYNLGEQTEEIINDIKTGKHALIVLNDQESINDYPYEKKLVNEVFERRYSRKSEFENLEHHHHHH | not soluble
MNRSNAQTERGRRWYVGDRLHVDVRGLPCPEPLVTVLRLIDGSEVGDGLTALVSQEPLLLYPELDARGCRYRMVTPAGDTLLRDGEVVLEIERSK | not soluble
MNRTDELRTARIESLVTPAELALRYPVTPGVATHVTDSRRRIEKILNGEDKRLLVIIGPCSIHDLTAAMEYATRLQSLRNQYQSRLEIVMRTYFEKPRTVVGWKGLISDPDLNGSYRVNHGLELARKLLLQVNELGVPTATEFLDMVTGQFIADLISWGAIGARTTESQIHREMASALSCPVGFKNGTDGNTRIAVDAIRAARASHMFLSPDKNGQMTIYQTSGNPYGHIIMRGGKKPNYHADDIAAACDTLHEFDLPEHLVVDFSHGNCQKQHRRQLEVCEDICQQIRNGSTAIAGIMAESFLREGTQKIVGSQPLTYGQSITDPCLGWEDTERLVEKLASAVDTRF | soluble
MNSGYSANIFPSSSSPTLYQSHQLPNPSATMYQATPRDMGKPPVRGKTSPYGFFVKMCYEEHKKKYPNENVQVTEISKKCSEKWKTMVDDEKRRFYELAQKDAERYQAEVSVAAYGGEDAMRKRKRAKKDPHAPKRALSAFFFYSQDKRPEIQAGHPDWKVGQVAQELGKMWKLVPQETKDMYEQKAQADKDRYADEMRNYKAEMQKMSGMDHYDDDNIHHVVHVEDINSQNIS | not soluble
